This note sets out measurements from paper doi:10.1101/2020.02.01.930172 (bioRxiv, 2020).

This assay deals with GST-SIRT6 K33R (human, UniProt Q8N6T7 1-355, K33R). Nature of the assay: pull-down.
GST-SIRT6 K33R, sequence (Q8N6T7 whole entry K33R): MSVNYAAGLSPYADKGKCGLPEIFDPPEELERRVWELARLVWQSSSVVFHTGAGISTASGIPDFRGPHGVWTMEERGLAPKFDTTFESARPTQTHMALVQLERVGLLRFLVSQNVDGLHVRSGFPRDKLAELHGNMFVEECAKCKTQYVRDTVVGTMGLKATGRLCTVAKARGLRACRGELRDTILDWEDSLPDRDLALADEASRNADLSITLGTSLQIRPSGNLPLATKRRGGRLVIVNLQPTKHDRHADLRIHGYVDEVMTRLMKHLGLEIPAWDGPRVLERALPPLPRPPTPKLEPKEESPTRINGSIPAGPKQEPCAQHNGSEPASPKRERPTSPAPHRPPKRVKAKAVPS

In the case of GKKATQASQEY [biotin-labeled C-terminal γH2AX peptide], the binding result was “binds”.
